Test results: patent US20240263180, “SMALL COMPLEMENTARY NUCLEIC ACIDS, COMPOSITIONS CONTAINING THE SAME, AND METHODS FOR USE AS ANTIVIRALS” (HOWARD UNIVERSITY, published 2024)

Columns and labels:
[1] = target: T1, U2AF65 (UniProt P26368 P26368:2-475); test: EMSA; native PAGE; conditions: label: radiolabel
[2] = target: T1, U2AF65; test: EMSA; conditions: label: radiolabel

T1 sequence (P26368 2-475, one chain of several): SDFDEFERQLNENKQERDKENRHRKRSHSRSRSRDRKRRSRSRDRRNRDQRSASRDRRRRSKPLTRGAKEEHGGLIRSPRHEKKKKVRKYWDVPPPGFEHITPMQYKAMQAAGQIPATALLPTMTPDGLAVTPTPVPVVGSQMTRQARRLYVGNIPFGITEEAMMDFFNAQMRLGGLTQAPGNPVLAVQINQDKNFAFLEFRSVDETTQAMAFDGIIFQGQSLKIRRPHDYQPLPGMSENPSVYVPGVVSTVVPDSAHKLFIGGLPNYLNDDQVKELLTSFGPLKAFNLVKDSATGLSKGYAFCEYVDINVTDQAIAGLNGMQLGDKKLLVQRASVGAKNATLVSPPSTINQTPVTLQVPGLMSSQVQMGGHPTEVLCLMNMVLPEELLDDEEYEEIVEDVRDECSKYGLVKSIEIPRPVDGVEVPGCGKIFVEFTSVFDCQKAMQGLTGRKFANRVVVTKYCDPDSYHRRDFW

Row | Binder | binding result [1] | binding result [2]
1 | CACGCCUGUGAAACCGUACUAAGUCUCCCGUGUCUUCUUAUCACCAUCAG (ssRNA) [wt PyA+PyB RNA probe (HCMV MIE intron 4)] | binds | 
2 | CACGCCUGUGAAACCGUACUAAGUCUCCCGUGUCAAGUUAUCACCAUCAG (ssRNA) [dPyB probe] |  | no binding
3 | CACGCCUGUGAAACCGUACUAAGUCAGCCGUGUCAAGUUAUCACCAUCAG (ssRNA) [dPyAB probe] |  | no binding
